# Source: US20100285597A1, “DETECTION OF FRAGMENTS OF NECTIN-1 FOR THE DIAGNOSIS OF ALZHEIMER'S DISEASE” (UNIVERSITY OF ROCHESTER, priority 2007, published 2010)
# Substitutions are numbered along the chain they refer to. Names may count otherwise.
# B1: Δ28-250: nectin-1 ectodomain truncation mutant, V5 and flag tagged (protein)
# chain: FDGNWYLQRMDVKLTCKADANPPATEYHWTTLNGSLPKGVEAQNRTLFFKGPINYSLAGTYICEATNPIGTRSGQVEVNITEFPYTPSPPEHGRRAGPVPTAIIGGVAGSILLVLIVVGGIVVALRRRRHTFKGDYSTKKHVYGNGYSKAGIPQHHPPMAQNLQYPDDSDDEKKAGPLGGSSYEEEEEEEEGGGGGERKVGGPHPKYDEDAKRPYFTVDEAEARQDGYGDRTLGYQYDPEQLDLAENMVSQNDGSFISKKEWYV
# modifications: left off: small tags and cut ends
# notes: nectin-1 ectodomain truncation mutant, V5 and flag tagged
# B2: Δ28-300: nectin-1 ectodomain truncation mutant, V5 and flag tagged (protein)
# chain: GPINYSLAGTYICEATNPIGTRSGQVEVNITEFPYTPSPPEHGRRAGPVPTAIIGGVAGSILLVLIVVGGIVVALRRRRHTFKGDYSTKKHVYGNGYSKAGIPQHHPPMAQNLQYPDDSDDEKKAGPLGGSSYEEEEEEEEGGGGGERKVGGPHPKYDEDAKRPYFTVDEAEARQDGYGDRTLGYQYDPEQLDLAENMVSQNDGSFISKKEWYV
# modifications: left off: small tags and cut ends
# notes: as for B1
# B3: Δ28-312: nectin-1 ectodomain truncation mutant, V5 and flag tagged (protein)
# chain: CEATNPIGTRSGQVEVNITEFPYTPSPPEHGRRAGPVPTAIIGGVAGSILLVLIVVGGIVVALRRRRHTFKGDYSTKKHVYGNGYSKAGIPQHHPPMAQNLQYPDDSDDEKKAGPLGGSSYEEEEEEEEGGGGGERKVGGPHPKYDEDAKRPYFTVDEAEARQDGYGDRTLGYQYDPEQLDLAENMVSQNDGSFISKKEWYV
# modifications: left off: small tags and cut ends
# notes: as for B1
# B4: Δ28-324: nectin-1 ectodomain truncation mutant, V5 and flag tagged (protein)
# chain: QVEVNITEFPYTPSPPEHGRRAGPVPTAIIGGVAGSILLVLIVVGGIVVALRRRRHTFKGDYSTKKHVYGNGYSKAGIPQHHPPMAQNLQYPDDSDDEKKAGPLGGSSYEEEEEEEEGGGGGERKVGGPHPKYDEDAKRPYFTVDEAEARQDGYGDRTLGYQYDPEQLDLAENMVSQNDGSFISKKEWYV
# modifications: left off: small tags and cut ends
# notes: as for B1
# B5: Δ28-333: nectin-1 ectodomain truncation mutant, V5 and flag tagged (protein)
# chain: PYTPSPPEHGRRAGPVPTAIIGGVAGSILLVLIVVGGIVVALRRRRHTFKGDYSTKKHVYGNGYSKAGIPQHHPPMAQNLQYPDDSDDEKKAGPLGGSSYEEEEEEEEGGGGGERKVGGPHPKYDEDAKRPYFTVDEAEARQDGYGDRTLGYQYDPEQLDLAENMVSQNDGSFISKKEWYV
# modifications: left off: small tags and cut ends
# notes: as for B1
# B6: Δ28-349: nectin-1 ectodomain truncation mutant, V5 and flag tagged (protein)
# chain: PTAIIGGVAGSILLVLIVVGGIVVALRRRRHTFKGDYSTKKHVYGNGYSKAGIPQHHPPMAQNLQYPDDSDDEKKAGPLGGSSYEEEEEEEEGGGGGERKVGGPHPKYDEDAKRPYFTVDEAEARQDGYGDRTLGYQYDPEQLDLAENMVSQNDGSFISKKEWYV
# modifications: left off: small tags and cut ends
# notes: as for B1
# B7: T310A: T310A point mutant of nectin-1 (protein, listed as Homo sapiens)
# chain: MARMGLAGAAGRWWGLALGLTAFFLPGVHSQVVQVNDSMYGFIGTDVVLHCSFANPLPSVKITQVTWQKSTNGSKQNVAIYNPSMGVSVLAPYRERVEFLRPSFTDGTIRLSRLELEDEGVYICEFATFPTGNRESQLNLTVMAKPTNWIEGTQAVLRAKKGQDDKVLVATCTSANGKPPSVVSWETRLKGEAEYQEIRNPNGTVTVISRYRLVPSREAHQQSLACIVNYHMDRFKESLTLNVQYEPEVTIEGFDGNWYLQRMDVKLTCKADANPPATEYHWTTLNGSLPKGVEAQNRTLFFKGPINYSLAGAYICEATNPIGTRSGQVEVNITEFPYTPSPPEHGRRAGPVPTAIIGGVAGSILLVLIVVGGIVVALRRRRHTFKGDYSTKKHVYGNGYSKAGIPQHHPPMAQNLQYPDDSDDEKKAGPLGGSSYEEEEEEEEGGGGGERKVGGPHPKYDEDAKRPYFTVDEAEARQDGYGDRTLGYQYDPEQLDLAENMVSQNDGSFISKKEWYV
# B8: Y311A: Y311A point mutant of nectin-1 (protein, listed as Homo sapiens)
# chain: B7 chain with A313T, Y314A
# Legend:
# BACE1 [1] = target: T1, BACE1 (Homo sapiens, UniProt P56817); assay: Co-immunoprecipitation of nectin-1 truncation mutants with BACE1 co-expressed in HEK 293 cells; type: binding; conditions: 48 hr. after transfection
# T1 construct: expressed in transfected cells; host or cells: HEK 293
# T1 sequence (P56817 46-501, species assumed): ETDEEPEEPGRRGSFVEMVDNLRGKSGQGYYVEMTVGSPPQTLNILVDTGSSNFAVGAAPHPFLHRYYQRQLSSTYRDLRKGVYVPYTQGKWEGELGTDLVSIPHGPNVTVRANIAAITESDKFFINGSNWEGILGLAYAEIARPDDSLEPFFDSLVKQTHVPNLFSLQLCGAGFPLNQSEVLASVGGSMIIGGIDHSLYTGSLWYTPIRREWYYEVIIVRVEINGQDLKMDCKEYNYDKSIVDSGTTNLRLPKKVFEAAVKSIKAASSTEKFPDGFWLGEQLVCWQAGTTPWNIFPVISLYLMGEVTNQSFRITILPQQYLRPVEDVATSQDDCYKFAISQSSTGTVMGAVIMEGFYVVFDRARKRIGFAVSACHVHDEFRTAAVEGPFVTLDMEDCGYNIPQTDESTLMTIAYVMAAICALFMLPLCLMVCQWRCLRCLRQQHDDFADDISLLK
# Procedure: To define the minimal region within the ectodomain of nectin-1 required for BACE1 interaction, immunoprecipitations between the nectin-1 truncation mutants and BACE1 were performed. BACE1 and full length or truncated nectin-1 were co-expressed in HEK 293 cells and harvested 48 hr. after transfection. To confirm to the efficiencies of the co-transfections, equal volumes of cell lysate were loaded on SDS-PAGE gels and analyzed by Western blot. Transfection efficiency was similar for nectin-1 and its derivates (FIG. 10A) and BACE1 (FIG. 10B). Immunoprecipitation was performed with a nectin-1 cytoplasmic specific antibody and precipitates were analyzed on two separate 10% SDS-PAGE. Western blots were probed with anti-nectin-1 (FIG. 10C) or anti-BACE1 (FIG. 10D) antibodies. The nectin-1 antibody directly immunoprecipitated the respective nectin-1 polypeptides and processed CTFs (FIG. 10C). Furthermore, BACE1, both monomer and dimer, was immunoprecipitated by the nectin-1 antibody, confirming the association of BACE1 with nectin-1.
# BACE1 [2] = target: T1, BACE1; assay: Co-immunoprecipitation of nectin-1 point mutants with BACE1 co-expressed in HEK 293 cells; type: binding; conditions: 48 hr. after transfection
# Procedure: To express how these point mutations affect the association of nectin-1 with BACE1, physical association of the mutants was examined by immunoprecipitation. We co-expressed BACE1 and nectin-1 or one of the cleavage refractory point mutants in HEK 293 cells. Cells were harvested and lysed in lysis buffer 48 hr. after transfection. To confirm the co-transfection efficiency of nectin-1 or it derivatives and BACE1, equal volumes of cell lysates were analyzed by 10% SDS-PAGE followed by Western blotting. Transfection efficiencies for nectin-1 and derivatives and BACE1 were similar in each sample (FIG. 12A—nectin-1, FIG. 12B—BACE1). Co-expression of nectin-1 with BACE1 increased the amount of CTF bands compared to nectin-1 alone (FIG. 12A, lanes 3 and 4).
# Immunoprecipitation was performed using a C-terminal specific nectin-1 antibody. […] The intensities of nectin-1 CTF bands were much stronger when nectin-1 was co-expressed with BACE1. BACE1 was also detected in nectin-1 complexes (FIG. 12D).
# [3] = test system: processing of wild type nectin-1; assay: Co-transfection of nectin-1 mutants with wild-type nectin-1 in HEK 293 cells, Western blot of CTF bands; type: cell-based; conditions: 0.5 μg wild-type nectin-1 plasmid, 24 hr. post-transfection
# Procedure: Mutants T310A and Y311A were tested to see if they would interfere with the processing of wild type nectin-1. HEK 293 cells were co-transfected with 0.5 μg of a plasmid containing wild-type nectin-1 and with a plasmid containing no insert (control), green fluorescent protein (GFP), nectin-1 T310A or nectin-1 Y311A. Co transfection efficiency was approximately 85%. Cells were harvested 24 hr. post-transfection and samples were analyzed on a 12% SDS-PAGE gel. […] Co-transfection with vector alone or GFP had no effect on nectin-1 processing. […] The residual CTF bands detected in the T310A and Y311A samples are likely due to the 15% of the cell population that received only the wild type nectin-1 construct.
Molecule,association with BACE1 (co-immunoprecipitation with nectin-1 antibody) (BACE1 [1]),"intensity of BACE1 bands co-precipitated, compared with wild type nectin-1 (BACE1 [2])",production of CTF bands of co-transfected wild type nectin-1 [3]
B1,interacted with BACE1 very strongly,–,–
B2,interacted with BACE1 very strongly,–,–
B3,Association with BACE1 was also detected,–,–
B4,Association with BACE1 was also detected,–,–
B5,Association with BACE1 was also detected,–,–
B6,did not associate with BACE1,–,–
B7,–,much greater than that precipitated by wild type nectin-1,substantially reduced
B8,–,much greater than that precipitated by wild type nectin-1,substantially reduced
